Assay results from the supplement of paper PMC10567573.
± gives the standard deviation.

Experiment: protein stability index of a GFP-peptide fusion (GPS, HEK-293T) (PSI 1-6); higher = more stable
[1] = treatment: DMSO, c terminus: a fixed tail appended
[2] = treatment: MLN4924 1 uM, 8 h, c terminus: a fixed tail appended
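Note: 24-mer peptide tiles fused after GFP, lentivirally expressed, FACS-sorted into six equal bins by GFP/DsRed ratio, decoded by Illumina sequencing, PSI is the read-weighted mean bin number.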

Sequence	protein stability index [1]	protein stability index [2]	protein stability index (treatment: DMSO, c terminus: native)	protein stability index (treatment: MLN4924 1 uM, 8 h, c terminus: native)
SRGYAYRDNGHSNRDEHSSRGYRN [RBMY1A1]	4.31 ± 0.16	4.21 ± 0.12		
PLGSPSPRPRRAKRFASLSRFVET [ADAMTS4]	3.5 ± 0.28	3.41 ± 0.21		
SLVKELLRMCSHGEGKINYYNFVR [EFHC1]	2.31 ± 0.32	2.46 ± 0.8		
SEAKLYGRCELARVLHDFGLDGYR [SPACA3]	2.23 ± 0.15	2.42 ± 0.13		
EIHSKTTAYSRLNETQPIDLSGLP [RNF180]	3.6 ± 0.14	3.75 ± 0.25		
VTQEPRAKKGRRNQSVEPKKEEPE [ZMYND11]	5.45 ± 0.24	5.6 ± 0.21		
PLFEDVQMLRKTVKDEAHQAQKDP [PPP2R5C]	5.37 ± 0.22	5.3 ± 0.17		
ITEALRPAGVGVVVEATHMCMVMR [GCH1]	2.11 ± 0.38	2.29 ± 0.33		
SPVLLGWVEQAYADKCVCGPSAPP [TIAF1]	2.67 ± 0.057	2.86 ± 0.28		
GDWAPPPEGGMEQALAGASSGREL [ZNF263]	5.35 ± 0.36	5.37 ± 0.16		
LVLLIIIGIPLFFLELAVGQRIRR [SLC6A17]	3.2 ± 0.25	3.2 ± 0.5		
SPKTNGHIENGPFSLEQQLDDEDD [SRPK2]	5.522 ± 0.051	5.56 ± 0.22		
EAGGKQKAVEEELDAEDRPAWNSK [SLC6A17]	5.62 ± 0.16	5.57 ± 0.15		
EKELVFDIDMTDYDDVRRCCSSAD [PRIM1]	4.73 ± 0.27	4.7 ± 0.35		
PAGGLAPGGGRGALLDQIRQGIQL [WAS]	4.7 ± 0.19	4.54 ± 0.76		
QGKYECVATNSAGTRYSAPANLYV [PTPRD]	2.9 ± 0.22	2.89 ± 0.64		
IGLGHIYSGTFALIGAAAFLGGVV [CLCN6]	2.94 ± 0.19	3.27 ± 0.7		
MQRKQSLGKPDQKDLNENLAATQG [DLC1]	5.11 ± 0.37	4.99 ± 0.45		
VPPGDYLFQVVINPNFEVAESDYS [LOXL2]	2.31 ± 0.37	2.12 ± 0.43		
ASAQKFSSRSTVPTPAKRRSSALW [NET1]	3.41 ± 0.039	3.5 ± 0.33		
PGVFVLLACGTMSSTCGQLASYPL [SLC25A25]	3.18 ± 0.3	2.66 ± 0.61		
KFTNKEWETIRSFKDEWTQLDMFY [AASDHPPT]	2 ± 0.36	2.22 ± 0.23		
ETGKLLWKVRYDTFIVSCKFSPDG [WDR88]	2.55 ± 0.37	2.04 ± 0.26		

Sequence	protein stability index [1]	protein stability index [2]	protein stability index (treatment: DMSO, c terminus: native)	protein stability index (treatment: MLN4924 1 uM, 8 h, c terminus: native)
KRCINLWKYALDMQQSNLDPLSPM [FEM1C]	2.33 ± 0.48	2.07 ± 0.38		
LEEVAVQQTGDDDEVDDFEDFIFS [PBXIP1]	5.43 ± 0.36	5.41 ± 0.27		
NSHLTSVPHWINSNTLGFGTEQAP [ETS2]	3.42 ± 0.15	3.45 ± 0.21		
LDQPAFQQLVSFSESGSLGNSSGS [ISL2]	4.43 ± 0.13	4.56 ± 0.075		
SPNYPSKYPPDRECIYIIEAAPRQ [NETO1]	2.58 ± 0.11	2.77 ± 0.31		
LSPEPPVYSLQDFDTLATVGTGTF [PRKX]	3.64 ± 0.21	3.59 ± 0.31		
NAGLSSTAGLLREQVAQLKQKVMT [JUNB]	3.42 ± 0.24	3.39 ± 0.42		
KREEEALEERRLSRGEIPTLQRS [PKD2L1]			5.33 ± 0.22	5.23 ± 0.28
NFKAHVSPHEMLQAVVLCSKKTFQ [USP39]	2.25 ± 0.25	2.26 ± 0.3		
GKKDKHSQSPRAAGPREGHSHSHH [PBXIP1]	5.32 ± 0.31	5.26 ± 0.1		
TSVNLGILTADLYSLFVGLFLFGY [SLC35F2]	2.93 ± 0.26	3.12 ± 0.2		
YLASLCMCFGPKKVKPAEAETAGA [SLC29A1]	2.6 ± 0.28	2.83 ± 0.23		
LPPPPPPSRGGNQLPRPPIVGGNK [WAS]	5.11 ± 0.6	5.01 ± 0.33		
CETTLFALRMATWNQILDPWVYIL [PTGFR]	2.89 ± 0.16	2.93 ± 0.6		
KEDTLLLIAEVMGEDIPEKIKDEV [C8orf76]	4.35 ± 0.49	4.22 ± 0.38		
QYESIAAKNLQEAEEWYKSKYADL [PRPH]	4.76 ± 0.23	4.49 ± 0.21		
WGKGARGRLGRRDEDAGLPRPVQL [NEK8]	3.37 ± 0.23	3.48 ± 0.32		
VGRTGCFIVIDAMLERIKHEKTVD [PTPRD]	2.25 ± 0.34	2.54 ± 0.26		
LGDLLMPTMAPAGQPAPVSMVPPS [SNAP91]	3.26 ± 0.2	3.51 ± 0.18		
FKDEWTQLDMFYRNWALKESFIKA [AASDHPPT]	2.02 ± 0.16	2.22 ± 0.14		
DAKDELEERLERCMSIVTSMTAGV [INTS3]	4.13 ± 0.3	4.09 ± 0.33		
IKMAMVACGDAFTVAIGAESEVYS [NEK8]	2.57 ± 0.78	2.57 ± 0.5		
RADKNDDGKLSFEEFKAYFADGVL [NECAB1]	3.48 ± 0.3	3.58 ± 0.39		

Sequence	protein stability index [1]	protein stability index [2]	protein stability index (treatment: DMSO, c terminus: native)	protein stability index (treatment: MLN4924 1 uM, 8 h, c terminus: native)
LTFAKSSWARQESLQERKQALYEY [AUP1]	2.78 ± 0.43	2.67 ± 0.39		
MSPLQAMSSYTVAGRNVLRWDLSP [NLN]	2.06 ± 0.31	2.55 ± 0.42		
DCCQVSAPNRFFQKLNVFKNFIGL [NLN]	2.09 ± 0.51	2.17 ± 0.21		
YIPRDVDETGITVASLERFSTYTS [ZC3H15]	2.65 ± 0.16	2.96 ± 0.16		
EESGSSSASEEEDTKPKPTKRKRK [INTS3]	5.55 ± 0.17	5.57 ± 0.29		
DVKKEKLSPDIMKDAYVQKLVKVC [TENT5D]	2.94 ± 0.52	3.1 ± 0.076		
ELQKIVQAGDKDLDGQLDFEEFVH [SLC25A25]	3.93 ± 0.046	4.19 ± 0.21		
GLGYFSCHSHTVVQDYSYFFFLRM [CCDC3]	2.66 ± 0.71	2.3 ± 0.55		
SQVPTGEVFYYSCEYNFVSPSKSF [CFHR2]	2.59 ± 0.85	2.08 ± 0.26		
AVSESYSAPGACEEPTERGNLEVG [FBXO34]	5.49 ± 0.12	5.57 ± 0.26		
YMTKPSKSLLPHLKTGNSSPGIGA [RTP4]	3.13 ± 0.13	3.22 ± 0.27		
ERVVINISGLRFETQLKTLAQFPN [KCNA1]	2.47 ± 0.29	2.32 ± 0.55		
INEDLKTCSRVDYCLLSDHGCEYS [MATN2]	3.41 ± 0.21	3.35 ± 0.33		
VNDLRGSDSIAYDKGEKLLRCKLA [ADD1]	3.34 ± 0.21	3.48 ± 0.48		
LYQTELVENECYQVFLDRINRADY [TOR1AIP2]	2.45 ± 0.27	2.71 ± 0.15		
LERLAYLHARLRELLCELGRPSMV [PRAME]	2.42 ± 0.16	2.3 ± 0.33		
MACPYSVLISGDIKDRLKKKEDCL [FAM98B]	2.87 ± 0.071	3.49 ± 0.38		
EDKTFGLKNKKGAKQQKFIKAVTH [ZC3H15]	4.26 ± 0.3	4.39 ± 0.23		
YQPEPFACGIEHCSVHYVSDSGDG [FBXO34]	2.93 ± 0.27	3.04 ± 0.26		
AAEYHAQRLKAVIVIQTYYRQWHA [IQUB]	4.97 ± 0.25	4.88 ± 0.32		
WGLEEEDFQPREEAMLYHNQTAEL [P3H4]	4.61 ± 0.084	4.5 ± 0.48		
HSFVLVTSLGLTYDGMLSDVQSMP [MAGEA10]	2.83 ± 0.53	2.88 ± 0.47		
KSQDLAKIMADIRAQYDELARKNR [KRT18]	3.05 ± 0.41	3.29 ± 0.65		

Sequence	protein stability index [1]	protein stability index [2]	protein stability index (treatment: DMSO, c terminus: native)	protein stability index (treatment: MLN4924 1 uM, 8 h, c terminus: native)
SATCTTGVMSAYAMCVRYDGVEVD [ADAMTSL2]	2.72 ± 0.32	2.63 ± 0.17		
PPPKTNLTPGQSDSAKREVKQKIS [FAN1]	5.44 ± 0.24	5.35 ± 0.094		
RQQVTNHGRGTEVLLEEPLPLETA [ZNF263]	5 ± 0.28	5.04 ± 0.17		
LKHQTVYRLLKCAPRGKNGFTPLH [FEM1A]	2.71 ± 0.69	2.39 ± 0.57		
MSSHLVEPPPPLHNNNNNCEENEQ [BNIP3L]	5.56 ± 0.11	5.67 ± 0.11		
LEHGADPTVKDLIGGFTALHYAAM [ASB7]	2.5 ± 0.45	2.54 ± 0.38		
ADFKGVLQRPSYKFFFKSMDDDFG [DVL3]	2.5 ± 0.28	2.67 ± 0.11		
TPVSYRMAKTLVFSKVKTSLGLDH [ACSBG2]	2.33 ± 0.33	2.41 ± 0.18		
TGVPGSPGHIGPPGPTGPKGISGH [EMID1]	4.33 ± 0.3	4.71 ± 0.27		
TEGFPPGGGNARATGMFLQYTVPG [ZFYVE21]	3.11 ± 0.16	3.07 ± 0.27		
HARLRLSADRLTVRCGLLGSLGPV [TRIM14]	2.2 ± 0.65	2.31 ± 0.3		
SAESMVEYGTCMCLVKGIFYHCSN [SPRY1]	2.65 ± 0.42	2.55 ± 0.34		
LGVALFTMLAGHYPFQDSEPVLLF [TRIB3]	2.94 ± 0.59	2.93 ± 0.27		
GTLIGVGQSVTAVGRIIAPLLSGV [MFSD9]	2.03 ± 0.17	2.2 ± 0.29		
PRAVFVLLEERRPADSAQLLSLNS [TFE3]	2.29 ± 0.12	2.4 ± 0.2		
ASFCVETNNGAGFGLSILWVLLFT [SCAMP3]	2.86 ± 0.71	2.99 ± 0.12		
WIQVTSLRIFVWLLLLYFMQVIAI [PHTF1]	3.08 ± 0.43	2.93 ± 0.42		
GEKPYLSPDILEEKHCEFKQLALD [ATL3]	4.42 ± 0.25	4.92 ± 0.12		
GIKGLVRDSHGKGIPNAIISVEGI [CPXM2]	2.8 ± 0.067			
PFSECGEAVSDSTPFLTNHGAHKA [ZNF263]	4.76 ± 0.24	4.93 ± 0.32		
